We go through two substances from PMC10316081.

Some targets named below: RagA-RagC(D201R) (human) (UniProt Q7L523); RagA-RagC(D205K) (human) (UniProt Q7L523); RagA-RagC(D201A) (human) (UniProt Q7L523); RagA-RagC(D205A) (human) (UniProt Q7L523).
In assay [1] the target is Rag GTPase heterodimer (RagA-RagC), wild type (human) (UniProt Q7L523).
For assay [2] the target is unchanged. The source holds these as a separate data set.
For assay [3], the target named is RagA-RagC(D201R, D205K) (human) (UniProt Q7L523).
The target in assay [4] is RagA-RagC(D201A, D205A) (human) (UniProt Q7L523).

As for “GATOR1[Depdc5(Y775A, R1407D)] (from UniProt O75140 1-1603; Q8WTW4 1-380; Q12980 1-569) (complex)”, in assay [1], the kcat of GATOR1-stimulated single turnover GTP hydrolysis by the Rag GTPase heterodimer (singly loaded with GTP) was determined as 0.00015 s⁻¹. Further, in assay [2], the KM of GATOR1-stimulated multiple turnover GTP hydrolysis, fold increase against GATOR1[Depdc5(Y775A)] (fold increase) is 8; the kcat of GATOR1-stimulated multiple turnover GTP hydrolysis, fold decrease against GATOR1[Depdc5(Y775A)] (fold decrease) was 8; the kcat/KM of GATOR1-stimulated multiple turnover GTP hydrolysis, fold decrease against GATOR1[Depdc5(Y775A)] (fold decrease) worked out at 64.

On to “GATOR1[Depdc5(Y775A)] (from UniProt O75140 1-1603; Q8WTW4 1-380; Q12980 1-569) (complex)”, for which the kcat of GATOR1-stimulated single turnover GTP hydrolysis by the Rag GTPase heterodimer (singly loaded with GTP) in assay [1] came out at 0.000267 s⁻¹. Also, the kcat/KM of GATOR1[Depdc5(Y775A)]-stimulated multiple turnover GTP hydrolysis, fold decrease against wild-type Rag GTPases (fold decrease) with RagA-RagC(D201R) (human) came out at 7; in the assay with RagA-RagC(D205K) (human) it was 22; in assay [3] it was 80; in assay [4], 7; with RagA-RagC(D201A) (human), 2; in the assay with RagA-RagC(D205A) (human) it was 4. Also, the kcat of GATOR1-stimulated multiple turnover GTP hydrolysis by the Rag GTPase heterodimer (dual-loaded with GTP) in assay [2] is 0.00183 s⁻¹.
